From paper PMC10992290, “In vitro biosynthesis of ATP from adenosine and polyphosphate” (Bioresources and Bioprocessing, 2021)

Legend:
Assay in all cases: HPLC nucleotide assay
AtAdk = biological target: T1, AtAdk (Arabidopsis thaliana, UniProt Q9LZG0); format: biochemical; settings: phosphate donor; 10 mM adenosine, 20 mM MgCl2, Tris-HCl pH 8.0, 45 °C
T1 construct: gene ADK2

HPLC nucleotide assay [1] = substrate: Nc1ncnc2c1ncn2[C@@H]1O[C@H](COP(=O)(O)O)[C@@H](O)[C@H]1O; format: biochemical, Lampropedia hyalina; settings: polyP6 as phosphate donor, MgCl2, Tris-HCl pH 8.0, 37 °C (routine assay)
Text: HPLC nucleotide assay on LhPPK

HPLC nucleotide assay [2] = substrate: Nc1ncnc2c1ncn2[C@@H]1O[C@H](COP(=O)(O)OP(=O)(O)O)[C@@H](O)[C@H]1O; format: biochemical, Sulfurovum lithotrophicum; settings: polyP6 as phosphate donor, MgCl2, Tris-HCl pH 8.0, 37 °C (routine assay)
Text: HPLC nucleotide assay on SlPPK

T1 sequence (Q9LZG0 whole entry): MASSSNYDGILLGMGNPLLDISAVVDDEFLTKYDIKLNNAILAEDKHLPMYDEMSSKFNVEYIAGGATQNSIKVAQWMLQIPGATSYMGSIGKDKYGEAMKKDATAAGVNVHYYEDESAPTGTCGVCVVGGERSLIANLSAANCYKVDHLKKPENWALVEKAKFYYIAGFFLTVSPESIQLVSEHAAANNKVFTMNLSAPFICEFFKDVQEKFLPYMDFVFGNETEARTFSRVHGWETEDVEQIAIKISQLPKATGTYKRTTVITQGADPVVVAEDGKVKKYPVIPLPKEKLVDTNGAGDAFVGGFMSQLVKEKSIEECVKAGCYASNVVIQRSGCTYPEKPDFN

Nc1ncnc2c1ncn2[C@@H]1O[C@H](COP(=O)(O)OP(=O)(O)OP(=O)(O)O)[C@@H](O)[C@H]1O [ATP]
HPLC nucleotide assay (AtAdk): conversion of adenosine to AMP by AtAdk, which required ATP as a phosphate donor

B1: LhPPK (Lampropedia hyalina DSM 16112) (protein)
chain: MTRKESPPMEAFKKYRISPKNTLKDIDPSDKPFSFGTKKDELQRLDELAVELDDLQNTLYAGKRRKVLLILQGLDTSGKDGTIRWVFSRTSPLGVHVAAFKAPSERERAHDFLWRCHAVVPANGELTVWNRSHYEDVLVPPVEGWIDKAETQRRYGHINDFERLLSETGTTIVKCMLHISNEEQRERLQDRLKDPGKNWKFAADDLSTRAKWNDYQRAYEQALQATSTPHAPWYVIPANSKRHRNLMVAQLLVQTLRDMKLRLPPPNLAFKDLVVN
Km (HPLC nucleotide assay [1]): 5.70 mM
Vmax (HPLC nucleotide assay [1]): 860 µM/min
kcat (HPLC nucleotide assay [1]): 92 s⁻¹
kcat/Km (HPLC nucleotide assay [1]): 16100 M⁻¹ s⁻¹

B2: SlPPK (Sulfurovum lithotrophicum) (protein)
chain: MKKNIYKKELYKLQVELVKFQKYVIEENVAVCLVLEGRDTAGKDGTIKRFTEHLSPREARTVALGVPSDKEKKSWYFQRYVPHLPSAGEIVFFNRSWYNRAGVEKVMGFCTKKQYKAFMEEVGSFEQMLTHSNIRFFKYYLDITKKEQKKRLEARKTDPLKQWKLSPIDAKAQKMWDAYSKARDDMFNKTSFIYAPWYVVHTDDKKEARINIMKHFLSLNDYPDKDKALLVYDHDVICKFDPVCYEKEMIAP
Km (HPLC nucleotide assay [2]): 0.61 mM
Vmax (HPLC nucleotide assay [2]): 1400 µM/min
kcat (HPLC nucleotide assay [2]): 140 s⁻¹
kcat/Km (HPLC nucleotide assay [2]): 230000 M⁻¹ s⁻¹
